Numbering of substitutions follows the chain as printed.
T1: human GFRAL (UniProtKB-Q6UXVO) (human, UniProt Q6UXV0 19-394)
T1 sequence (looked up): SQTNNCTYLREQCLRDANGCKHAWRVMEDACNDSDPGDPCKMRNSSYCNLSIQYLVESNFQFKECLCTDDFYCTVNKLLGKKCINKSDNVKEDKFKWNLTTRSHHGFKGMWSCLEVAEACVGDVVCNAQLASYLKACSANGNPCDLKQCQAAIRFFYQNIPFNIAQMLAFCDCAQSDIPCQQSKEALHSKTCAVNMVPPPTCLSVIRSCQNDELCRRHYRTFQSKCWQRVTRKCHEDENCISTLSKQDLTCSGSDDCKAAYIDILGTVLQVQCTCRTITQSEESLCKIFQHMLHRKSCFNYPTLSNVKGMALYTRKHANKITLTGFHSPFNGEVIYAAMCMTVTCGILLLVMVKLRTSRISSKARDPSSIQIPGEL

B1: natural GDF15 (ACROBiosystems, GD5-H5149) (ligand)
chain: ARNGDHCPLGPGRCCRLHTVRASLEDLGWADWVLSPREVQVTMCIGACPSQFRAANMHAQIKTSLHRLKPDTVPAPCCVPASYNPMVLIQKTDTGVSLQTYDDLLAKDCHCI
B2: Fc-GDF15 fusion protein M13 (Fc fusion)
chain: EAAGGPSVFLFPPKPKDTLMISRTPEVTCVVVDVSQEDPEVQFNWYVDGVEVHNAKTKPREEQFNSTYRVVSVLTVLHQDWLNGKEYKCKVSNKGLPSSIEKTISKAKGQPREPQVYTLPPSQEEMTKNQVSLTCLVKGFYPSDIAVEWESNGQPENNYKTTPPVLDSDGSFFLYSRLTVDKSRWQEGNVFSCSVMHEALHNHYTQESLSLSLGGGGGSGGGGSAPAPAPAPAPAPAPAPAPAPGGGGSGGGGSDHCPLGPGRCCRLHTVRASLEDLGWADWVLSPREVQVTMCIGACPSQFRAANMHAQIKTSLHRLKPDTVPAPCCVPASYNPMVLIQKTDTGVSLQTYDDLLAKDCHCI
B3: Fc-GDF15 fusion protein M21 (Fc fusion)
chain: APEAAGGPSVFLFPPKPKDTLMISRTPEVTCVVVDVSQEDPEVQFNWYVDGVEVHNAKTKPREEQFNSTYRVVSVLTVLHQDWLNGKEYKCKVSNKGLPSSIEKTISKAKGQPREPQVYTLPPSQEEMTKNQVSLTCLVKGFYPSDIAVEWESNGQPENNYKTTPPVLDSDGSFFLYSRLTVDKSRWQEGNVFSCSVMHEALHNHYTQESLSLSLGGGGGSGGGGSAPAPAPAPAPAPAPAPAPAPGGGGSGGGGSDCPLGPGRCCRLHTVRASLEDLGWADWVLSPREVQVTMCIGACPSQFRAANMHAQIKTSLHRLKPDTVPAPCCVPASYNPMVLIQKTDTGVSLQTYDDLLAKDCHCI
B4: Fc-GDF15 fusion protein M23 (Fc fusion)
chain: B3 chain with D257E
B5: Fc-GDF15 fusion protein M2 (Fc fusion)
chain: APEAAGGPSVFLFPPKPKDTLMISRTPEVTCVVVDVSQEDPEVQFNWYVDGVEVHNAKTKPREEQFNSTYRVVSVLTVLHQDWLNGKEYKCKVSNKGLPSSIEKTISKAKGQPREPQVYTLPPSQEEMTKNQVSLTCLVKGFYPSDIAVEWESNGQPENNYKTTPPVLDSDGSFFLYSRLTVDKSRWQEGNVFSCSVMHEALHNHYTQESLSLSLGGGGGSGGGGSAPAPAPAPAPAPAPAPAPAPGGGGSGGGGSARNGDHCPLGPGRCCRLHTVRASLEDLGWADWVLSPREVQVTMCIGACPSQFRAANMHAQIKTSLHRLKPDTVPAPCCVPASYNPMVLIQKTDTGVSLQTYDDLLAKDCHCI
B6: Fc-GDF15 fusion protein M9 (Fc fusion)
chain: APEAAGGPSVFLFPPKPKDTLMISRTPEVTCVVVDVSQEDPEVQFNWYVDGVEVHNAKTKPREEQFNSTYRVVSVLTVLHQDWLNGKEYKCKVSNKGLPSSIEKTISKAKGQPREPQVYTLPPSQREMTKNQVSLTCLVKGFYPSDIAVEWESNGQPENNYKTTPPVLDSDGSFFLYSRLTVDKSRWQEGNVFSCSVMHEALHNHYTQKSLSLSLGGGGGSGGGGSAPAPAPAPAPAPAPAPAPAPGGGGSGGGGSDHCPLGPGRCCRLHTVRASLEDLGWADWVLSPREVQVTMCIGACPSQFRAANMHAQIKTSLHRLKPDTVPAPCCVPASYNPMVLIQKTDTGVSLQTYDDLLAKDCHCI
B7: Fc-GDF15 fusion protein M22 (Fc fusion)
chain: B6 chain with R126E, K209E, H258E
B8: Fc-GDF15 fusion protein M11 (Fc fusion)
chain: B6 chain with R126A
B9: Fc-GDF15 fusion protein M10 (Fc fusion)
chain: B6 chain with R126Q
B10: Fc-GDF15 fusion protein M20 (Fc fusion)
chain: B6 chain with R126E, K209E, D257E
B11: Fc-GDF15 fusion protein M24 (Fc fusion)
chain: B6 chain with R126E, K209E, R273Q
B12: Fc-GDF15 fusion protein M26 (Fc fusion)
chain: B6 chain with R126E, K209E, D278E
B13: Fc-GDF15 fusion protein M25 (Fc fusion)
chain: B6 chain with R126E, K209E, R273H
B14: Fc-GDF15 fusion protein M27 (Fc fusion)
chain: B6 chain with R126E, K209E, D278E, K321R

Target: T1, human GFRAL (UniProtKB-Q6UXVO)
Assay: cell-based or functional assay

Row | Binder | Relative activity ratio (native GDF15 EC50: Fc-GDF15 construct EC50), ERK1/2 phosphorylation HTRF in HEK293T cells expressing human GFRAL and RET [ratio]
1 | B1 | 1
2 | B2 | 1.89
3 | B3 | 3.87
4 | B4 | 3.38
5 | B5 | 3.27
6 | B6 | 1.33
7 | B7 | 1.42
8 | B8 | 2.02
9 | B9 | 1.62
10 | B10 | 3.08
11 | B11 | 2.65
12 | B12 | 2.91
13 | B13 | 4.76
14 | B14 | 2.66

From patent US20240350588A1 (SUNSHINE LAKE PHARMA, published 2024)
